Results: PMC5460288, “In vitro assembly of the Rous Sarcoma Virus capsid protein into hexamer tubes at physiological temperature” (Scientific Reports, 2017)

B1: Rous Sarcoma Virus capsid protein (RSV CA), wild type (natural protein)
chain: PVVIKTEGPAWTPLEPKLITRLADTVRTKGLRSPITMAEVEALMSSPLLPHDVTNLMRVILGPAPYALWMDAWGVQLQTVIAAATRDPRHPANGQGRGERTNLNRLKGLADGMVGNPQGQAALLRPGELVAITASALQAFREVARLAEPAGPWADIMQGPSESFVDFANRLIKAVEGSDLPPSARAPVIIDCFRQKSQPDIQQLIRTAPSTLTTPGEIIKYVLDRQKTAPLTDQGIA
notes: capsid protein (CA), the cut product of the Gag polyprotein of Rous sarcoma virus strain Prague C; the naturally occurring species denoted CA (without spacer peptide residues); also called wild type RSV CA; full length RSV CA; not shown: Mycobacterium xenopi GyrA intein (modified), C-terminal, cleaved

Experiments:
[1] = molecular target: RSV CA carrying the C-terminal spacer peptide (CA-SP, CA + 12) (Rous Sarcoma Virus (strain Prague C)); assay: cryo-EM structure; iterative real space helical reconstruction (SPRING) of one single-layered CA-SP tube, local C6 symmetrization of the turrets, 24 Å (FSC 0.143)
[2] = molecular target: the molecule itself; assay: negative-stain transmission electron microscopy; 600–700 μM protein dialyzed 16–24 h (overnight) at 37 °C against neutral pH (pH 7) buffer with 25–150 mM NaCl; uranyl acetate stain

Molecule	stoichiometry N [1]	stoichiometry N [2]
RSV CA carrying the C-terminal spacer peptide (CA-SP, CA + 12) (natural protein)	6	
B1		6
